Reference: patent US20170082609A1

How the values were obtained:
[1] = target: CDHR3 Cys529→Tyr variant (human) (UniProt Q6ZTQ4); assay: virus bound to HeLa-E8 monolayers, viral RNA by real-time PCR
[2] = target: CDHR3 Cys529→Tyr variant (human) (UniProt Q6ZTQ4); assay: virus bound to HeLa-E8 cells 2 h p.i., viral RNA by real-time PCR
[3] = target: CDHR3 Cys529→Tyr variant (human) (UniProt Q6ZTQ4); assay: cell-based or functional assay

UniProt Q6ZTQ4, sequence (Q6ZTQ4 other isoform, or with tags, fused parts or gaps mutant): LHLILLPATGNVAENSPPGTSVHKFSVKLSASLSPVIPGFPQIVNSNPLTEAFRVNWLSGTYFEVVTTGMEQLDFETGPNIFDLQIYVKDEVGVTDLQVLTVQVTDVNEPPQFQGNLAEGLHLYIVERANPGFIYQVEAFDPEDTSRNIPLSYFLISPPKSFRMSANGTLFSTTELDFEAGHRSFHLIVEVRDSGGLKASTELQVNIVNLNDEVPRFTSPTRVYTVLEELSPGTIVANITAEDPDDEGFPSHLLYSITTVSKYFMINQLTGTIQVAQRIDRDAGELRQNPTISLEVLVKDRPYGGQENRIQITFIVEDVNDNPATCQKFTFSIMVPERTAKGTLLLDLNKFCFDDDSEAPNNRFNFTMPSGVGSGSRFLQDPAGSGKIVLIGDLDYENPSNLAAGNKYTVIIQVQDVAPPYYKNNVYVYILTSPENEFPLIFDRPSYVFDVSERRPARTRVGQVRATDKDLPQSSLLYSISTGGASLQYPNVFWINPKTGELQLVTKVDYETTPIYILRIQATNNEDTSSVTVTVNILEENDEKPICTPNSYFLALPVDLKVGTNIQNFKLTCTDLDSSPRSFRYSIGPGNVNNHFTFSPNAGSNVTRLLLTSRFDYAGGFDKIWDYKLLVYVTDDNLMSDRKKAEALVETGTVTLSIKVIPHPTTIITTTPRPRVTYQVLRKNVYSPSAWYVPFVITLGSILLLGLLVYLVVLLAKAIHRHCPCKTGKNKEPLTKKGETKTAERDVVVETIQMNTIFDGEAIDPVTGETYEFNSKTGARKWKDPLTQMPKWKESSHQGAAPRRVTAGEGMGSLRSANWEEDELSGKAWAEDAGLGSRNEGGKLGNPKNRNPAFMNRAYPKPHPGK

With HeLa-E8 adapted RV-C15 (RV-C15a) the fold increase of virus binding against the parental isolate [1] was > 10 fold, the binding compared to that of RV-C15-wt [2] was > 1 log and the replication in HeLa-E8 compared to control HeLa cells (orders of magnitude) [3] was 2.
